Positions count from the first letter of the chain named. Names may count otherwise.
Target: T1, PUF4 RNA-binding domain (Saccharomyces cerevisiae, UniProt P25339 537-888)
T1 sequence: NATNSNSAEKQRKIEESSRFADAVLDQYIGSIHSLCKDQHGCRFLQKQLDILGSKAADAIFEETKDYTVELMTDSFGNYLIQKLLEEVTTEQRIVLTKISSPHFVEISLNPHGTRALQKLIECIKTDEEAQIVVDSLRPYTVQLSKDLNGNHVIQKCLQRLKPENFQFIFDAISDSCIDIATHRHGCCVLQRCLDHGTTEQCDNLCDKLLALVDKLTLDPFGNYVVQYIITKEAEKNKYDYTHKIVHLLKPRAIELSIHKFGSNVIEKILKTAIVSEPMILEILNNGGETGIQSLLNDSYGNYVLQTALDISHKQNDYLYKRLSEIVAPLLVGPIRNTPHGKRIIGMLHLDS
Experiment: Mg; RNA-MaP; 20 mM Na-HEPES pH 7.4, 30 mM KOAc, 0.75 mM MgCl2, 0.1% Tween-20, 5% glycerol, 0.1 mg/mL BSA, 2 mM DTT; 25 C; 0.0125-409.6 nM protein
Settings: tags: N-His6-TEV cleaved; C-SNAP kept, Cy3B-labelled; label: tethered on chip by stalled RNA polymerase

Question: Which Kd does the source give for UCUCUUUGUAUAACUAUCUCUU (ssRNA) [Ic_S1_P5E.1_K5.1_C5.1_H5.1_A5.1_[T6A]_F5.1_[T8C]_T5.1] here?
Answer: Its Kd is 8.58 nM.

B1: Id_ii_S2_P5E.2_K5.1_C5.2_[C-2A]_[T-1C]_H5.1_A5.1_F5.1_T5.2_[A12G] (ssRNA)
RNA: UUUGAUUAAUAUGAUAUCGUUCUUUCUACUGUAUUAUUAUGUUCUUUCUCGAUAUCAUAUUAAUCUUU
Question: For B1, which Kd is on record?
Answer: The Kd was 31.6 nM.

B2: Id_ii_S2_P5E.2_K5.1_C5.2_[T-1A]_H5.1_A5.1_F5.1_T5.2_[T11G]_[A12T] (ssRNA)
RNA: B1 RNA with A28C, C29A, U40G, G41U
Question: Which Kd does the source give for B2 here?
Answer: The Kd was 2.92 nM.

B3: Id_ii_S2_P5E.2_K5.1_C5.2_[T-1G]_H5.1_A5.1_F5.1_T5.2_[T11A]_[A12T] (ssRNA)
RNA: B1 RNA with A28C, C29G, U40A, G41U
Question: Which Kd does the source give for B3 here?
Answer: Its Kd is 2.03 nM.

B4: Id_ii_S2_P5E.2_K5.1_C5.2_H5.1_A5.1_F5.1_T5.2_[T11A] (ssRNA)
RNA: B1 RNA with A28C, C29U, U40A, G41A
Question: B4 was tested. Which Kd did it give?
Answer: The Kd was 3.44 nM.

B5: Id_ii_S2_P5E.2_K5.1_C5.2_[T-1G]_H5.1_A5.1_F5.1_T5.2_[A12C] (ssRNA)
RNA: B1 RNA with A28C, C29G, G41C
Question: How did the Kd turn out when B5 was run?
Answer: Its Kd is 2.68 nM.

B6: Id_ii_S2_P5E.2_K5.1_C5.2_[T-1G]_H5.1_A5.1_F5.1_T5.2_[A12T] (ssRNA)
RNA: B1 RNA with A28C, C29G, G41U
Question: For B6, which Kd is on record?
Answer: Its Kd is 1.54 nM.

B7: Id_ii_S2_P5E.2_K5.1_C5.2_[C-2A]_H5.1_A5.1_F5.1_T5.2_[T11A]_[A12T] (ssRNA)
RNA: B1 RNA with C29U, U40A, G41U
Question: Which Kd does the source give for B7 here?
Answer: Its Kd is 5.79 nM.

B8: Id_ii_S2_P5E.2_K5.1_C5.2_[C-2A]_[T-1A]_H5.1_A5.1_F5.1_T5.2_[A12C] (ssRNA)
RNA: B1 RNA with C29A, G41C
Question: B8 was tested. Which Kd did it give?
Answer: The Kd was 9.68 nM.

B9: Id_ii_S2_P5E.2_K5.1_C5.2_H5.1_A5.1_F5.1_T5.2_[A12T] (ssRNA)
RNA: B1 RNA with A28C, C29U, G41U
Question: For B9, which Kd is on record?
Answer: The Kd was 1.19 nM.

B10: Id_ii_S2_P5E.2_K5.1_C5.2_[C-2A]_[T-1C]_H5.1_A5.1_F5.1_T5.2_[A12T] (ssRNA)
RNA: B1 RNA with G41U
Question: How did the Kd turn out when B10 was run?
Answer: The Kd was 2.49 nM.

B11: Id_ii_S2_P5E.2_K5.1_C5.2_H5.1_A5.1_F5.1_T5.2_[T11A]_[A12C] (ssRNA)
RNA: B1 RNA with A28C, C29U, U40A, G41C
Question: For B11, which Kd is on record?
Answer: The Kd was 4.41 nM.

B12: Id_ii_S2_P5E.2_K5.1_C5.2_[C-2A]_H5.1_A5.1_F5.1_T5.2_[A12T] (ssRNA)
RNA: B1 RNA with C29U, G41U
Question: B12 was tested. Which Kd did it give?
Answer: Its Kd is 2.99 nM.

B13: Id_ii_S2_P5E.2_K5.1_C5.2_[T-1G]_H5.1_A5.1_F5.1_T5.2_[T11A]_[A12C] (ssRNA)
RNA: B1 RNA with A28C, C29G, U40A, G41C
Question: For B13, which Kd is on record?
Answer: The Kd was 6.1 nM.

B14: Id_ii_S2_P5E.2_K5.1_C5.2_[T-1A]_H5.1_A5.1_F5.1_T5.2_[T11G]_[A12C] (ssRNA)
RNA: B1 RNA with A28C, C29A, U40G, G41C
Question: Which Kd does the source give for B14 here?
Answer: The Kd was 2.55 nM.

B15: Id_ii_S2_P5E.3_K5.2_C5.2_[C-2G]_[T-1C]_H5.2_A5.1_F5.1_T5.2_[T11C]_[A12G] (ssRNA)
RNA: B1 RNA with A28G, G31A, U40C
Question: For B15, which Kd is on record?
Answer: Its Kd is 635 nM.

B16: Id_ii_S2_P5E.3_K5.2_C5.2_[C-2G]_[T-1C]_H5.2_A5.1_F5.1_T5.2_[T11C]_[A12C] (ssRNA)
RNA: B1 RNA with A28G, G31A, U40C, G41C
Question: Which Kd does the source give for B16 here?
Answer: The Kd was 133 nM.

B17: Id_ii_S2_P5E.2_K5.1_C5.2_[C-2A]_H5.1_A5.1_F5.1_T5.2_[A12C] (ssRNA)
RNA: B1 RNA with C29U, G41C
Question: B17 was tested. Which Kd did it give?
Answer: Its Kd is 3.2 nM.

B18: Id_ii_S2_P5E.2_K5.1_C5.2_[T-1A]_H5.1_A5.1_F5.1_T5.2_[T11A]_[A12C] (ssRNA)
RNA: B1 RNA with A28C, C29A, U40A, G41C
Question: For B18, which Kd is on record?
Answer: The Kd was 4.53 nM.

B19: Id_ii_S2_P5E.2_K5.1_C5.2_[T-1A]_H5.1_A5.1_F5.1_T5.2_[A12C] (ssRNA)
RNA: B1 RNA with A28C, C29A, G41C
Question: With B19 as the binder, how does the Kd read?
Answer: Its Kd is 2.97 nM.

B20: Id_ii_S2_P5E.2_K5.1_C5.2_[T-1C]_H5.1_A5.1_F5.1_T5.2_[A12C] (ssRNA)
RNA: B1 RNA with A28C, G41C
Question: With B20 as the binder, how does the Kd read?
Answer: Its Kd is 1.5 nM.

B21: Id_ii_S2_P5E.2_K5.1_C5.2_[T-1C]_H5.1_A5.1_F5.1_T5.2_[A12T] (ssRNA)
RNA: B1 RNA with A28C, G41U
Question: Which Kd does the source give for B21 here?
Answer: Its Kd is 0.992 nM.

B22: Id_ii_S2_P5E.2_K5.1_C5.2_[T-1C]_H5.1_A5.1_F5.1_T5.2_[T11A]_[A12T] (ssRNA)
RNA: B1 RNA with A28C, U40A, G41U
Question: For B22, which Kd is on record?
Answer: Its Kd is 1.44 nM.

B23: Id_ii_S2_P5E.2_K5.1_C5.2_[C-2A]_H5.1_A5.1_F5.1_T5.2_[T11A]_[A12C] (ssRNA)
RNA: B1 RNA with C29U, U40A, G41C
Question: For B23, which Kd is on record?
Answer: The Kd was 6.07 nM.

B24: Id_ii_S2_P5E.2_K5.1_C5.2_[C-2A]_H5.1_A5.1_F5.1_T5.2_[A12G] (ssRNA)
RNA: B1 RNA with C29U
Question: With B24 as the binder, how does the Kd read?
Answer: Its Kd is 5.06 nM.

B25: Id_ii_S2_P5E.2_K5.1_C5.2_H5.1_A5.1_F5.1_T5.2_[T11G]_[A12C] (ssRNA)
RNA: B1 RNA with A28C, C29U, U40G, G41C
Question: For B25, which Kd is on record?
Answer: The Kd was 1.71 nM.

B26: Id_ii_S2_P5E.2_K5.1_C5.2_[T-1G]_H5.1_A5.1_F5.1_T5.2_[T11A] (ssRNA)
RNA: B1 RNA with A28C, C29G, U40A, G41A
Question: With B26 as the binder, how does the Kd read?
Answer: The Kd was 3.97 nM.

B27: Id_ii_S2_P5E.2_K5.1_C5.2_[T-1C]_H5.1_A5.1_F5.1_T5.2_[T11A]_[A12C] (ssRNA)
RNA: B1 RNA with A28C, U40A, G41C
Question: B27 was tested. Which Kd did it give?
Answer: Its Kd is 3.51 nM.

B28: Id_ii_S2_P5E.2_K5.1_C5.2_[T-1A]_H5.1_A5.1_F5.1_T5.2_[T11A]_[A12G] (ssRNA)
RNA: B1 RNA with A28C, C29A, U40A
Question: For B28, which Kd is on record?
Answer: Its Kd is 26.7 nM.

B29: Id_ii_S2_P5E.2_K5.1_C5.2_[T-1G]_H5.1_A5.1_F5.1_T5.2_[T11G]_[A12T] (ssRNA)
RNA: B1 RNA with A28C, C29G, U40G, G41U
Question: B29 was tested. Which Kd did it give?
Answer: Its Kd is 1.86 nM.

B30: Id_ii_S2_P5E.2_K5.1_C5.2_[T-1C]_H5.1_A5.1_F5.1_T5.2_[T11A] (ssRNA)
RNA: B1 RNA with A28C, U40A, G41A
Question: For B30, which Kd is on record?
Answer: Its Kd is 3.1 nM.

B31: Id_ii_S2_P5E.2_K5.1_C5.2_H5.1_A5.1_F5.1_T5.2_[T11A]_[A12T] (ssRNA)
RNA: B1 RNA with A28C, C29U, U40A, G41U
Question: B31 was tested. Which Kd did it give?
Answer: The Kd was 1.79 nM.

B32: Id_ii_S2_P5E.2_K5.1_C5.2_[T-1A]_H5.1_A5.1_F5.1_T5.2_[T11A]_[A12T] (ssRNA)
RNA: B1 RNA with A28C, C29A, U40A, G41U
Question: How did the Kd turn out when B32 was run?
Answer: The Kd was 4.3 nM.

B33: Id_ii_S2_P5E.2_K5.1_C5.2_[T-1G]_H5.1_A5.1_F5.1_T5.2_[T11G]_[A12C] (ssRNA)
RNA: B1 RNA with A28C, C29G, U40G, G41C
Question: B33 was tested. Which Kd did it give?
Answer: The Kd was 2.28 nM.

B34: Id_ii_S2_P5E.2_K5.1_C5.2_[T-1C]_H5.1_A5.1_F5.1_T5.2_[A12G] (ssRNA)
RNA: B1 RNA with A28C
Question: For B34, which Kd is on record?
Answer: The Kd was 2.27 nM.

B35: Id_ii_S2_P5E.2_K5.1_C5.2_[T-1A]_H5.1_A5.1_F5.1_T5.2_[A12T] (ssRNA)
RNA: B1 RNA with A28C, C29A, G41U
Question: How did the Kd turn out when B35 was run?
Answer: The Kd was 3.27 nM.

B36: Id_ii_S2_P5E.2_K5.1_C5.2_[C-2A]_[T-1A]_H5.1_A5.1_F5.1_T5.2_[T11A]_[A12C] (ssRNA)
RNA: B1 RNA with C29A, U40A, G41C
Question: With B36 as the binder, how does the Kd read?
Answer: Its Kd is 19 nM.

B37: Id_ii_S2_P5E.2_K5.1_C5.2_[C-2A]_[T-1C]_H5.1_A5.1_F5.1_T5.2_[A12C] (ssRNA)
RNA: B1 RNA with G41C
Question: Which Kd does the source give for B37 here?
Answer: Its Kd is 2.94 nM.

B38: Id_ii_S2_P5E.2_K5.1_C5.2_[C-2A]_[T-1A]_H5.1_A5.1_F5.1_T5.2_[T11A]_[A12T] (ssRNA)
RNA: B1 RNA with C29A, U40A, G41U
Question: Which Kd does the source give for B38 here?
Answer: Its Kd is 20.4 nM.

B39: Id_ii_S2_P5E.3_K5.2_C5.2_[C-2G]_[T-1C]_H5.2_A5.1_F5.1_T5.2_[T11C]_[A12T] (ssRNA)
RNA: B1 RNA with A28G, G31A, U40C, G41U
Question: With B39 as the binder, how does the Kd read?
Answer: Its Kd is 161 nM.

B40: Id_ii_S2_P5E.2_K5.1_C5.2_[T-1C]_H5.1_A5.1_F5.1_T5.2_[T11A]_[A12G] (ssRNA)
RNA: B1 RNA with A28C, U40A
Question: Which Kd does the source give for B40 here?
Answer: Its Kd is 9.77 nM.

Question: With UCUCUUUGUAUCACUAUCUCUU (ssRNA) [Ib_S1_P5E.1_K5.1_C5.1_H5.1_A5.1_[T6C]_F5.1_[T8C]_T5.1] as the binder, how does the Kd read?
Answer: Its Kd is 18 nM.

Question: Which Kd does the source give for UCUCUUUGUGUUAUUAUCUCUU (ssRNA) [Ia_S1_P5E.1_K5.1_C5.1_H5.1_[A4G]_A5.1_F5.1_T5.1] here?
Answer: Its Kd is 30.7 nM.

Question: How did the Kd turn out when UCUCUUUGUAUAAAUAUCUCUU (ssRNA) [Ib_S1_P5E.1_K5.1_C5.1_H5.1_A5.1_[T6A]_F5.1_[T8A]_T5.1] was run?
Answer: The Kd was 11.7 nM.

Question: With UCUCUUUGUAUCAAUAUCUCUU (ssRNA) [Ib_S1_P5E.1_K5.1_C5.1_H5.1_A5.1_[T6C]_F5.1_[T8A]_T5.1] as the binder, how does the Kd read?
Answer: Its Kd is 13.4 nM.
